According to paper PMC5372681, “Study of Different Variants of Mo Enzyme crARC and the Interaction with Its Partners crCytb5-R and crCytb5-1” (International Journal of Molecular Sciences, 2017):

Target: T1, crARC, Chlamydomonas reinhardtii mARC (mitochondrial Amidoxime Reducing Component), wild type (Chlamydomonas reinhardtii)
T1 construct: crARC, Chlamydomonas reinhardtii mARC, GenPept XP_001694549; Carries the Mo Cofactor; The mutant cDNAs were cloned in pQE80 (N-terminal six histidines); also called wild type crARC; Mo enzyme crARC; source: E. coli TP1000 (mobA), purified (Ni-NTA, PD10 desalting)
Assay: SEC; two proteins incubated together for 10 min, then loaded; 15 pmol of each; Superdex 200 10/300 GL, 50 mM phosphate buffer pH 7.2, 0.15 M NaCl, 0.75 mL/min; peak fractions checked by SDS-PAGE
Conditions: both partners purified

B1: crCytb5-R, Chlamydomonas reinhardtii NADH cytochrome b5 reductase (enzyme)
chain: MEEAGSEVMRSVITLLSYWQVGAGLLVVLVLIQALVFLRKKTKKPFLDPSEFQPVPLVEKTLITHNTVRLRFALPDPEQRVGLPIGQHISFKAQGEDGKDVIRPYTPVSDDDQLGAVDFVIKLYPTGKMSQVIAKMQLGDTMLMKGPKGRFTYTPNMVKHFGMLAGGTGITPMFQVLNAILKNPRDTTSVTLLYGNLTEEDILLRKELDELVAMHGNRLTVYHVLNTPPVDKEWSGGSGFISSELIRTKFPAPSSDIMTLRCGPSPMMVAMEKALTDLGYAEDKQFQF
stoichiometry N: 1 crCytb5-R per crARC
